Data taken from article PMC3983035, “The RNA-Binding Protein QKI Suppresses Cancer-Associated Aberrant Splicing”.
Where a chain is given by its changes, count along the chain named.

Key:
QKI-5 (His-tagged) = target: T1, QKI-5 (His-tagged) (UniProt Q96PU8 1-341); test: EMSA; 0-2080 nM QKI-5; EMSA: 10 ng 32P-RNA, standard splicing conditions, 30 C, 20 min, then tRNA 5 min; 5% native PAGE; buffer, salt and pH not given; details: protein: recombinant; tags: His-tag (pET-28a); reverse primer also encodes C-terminal FLAG; chain copies: 2; label: 32P
T1 sequence: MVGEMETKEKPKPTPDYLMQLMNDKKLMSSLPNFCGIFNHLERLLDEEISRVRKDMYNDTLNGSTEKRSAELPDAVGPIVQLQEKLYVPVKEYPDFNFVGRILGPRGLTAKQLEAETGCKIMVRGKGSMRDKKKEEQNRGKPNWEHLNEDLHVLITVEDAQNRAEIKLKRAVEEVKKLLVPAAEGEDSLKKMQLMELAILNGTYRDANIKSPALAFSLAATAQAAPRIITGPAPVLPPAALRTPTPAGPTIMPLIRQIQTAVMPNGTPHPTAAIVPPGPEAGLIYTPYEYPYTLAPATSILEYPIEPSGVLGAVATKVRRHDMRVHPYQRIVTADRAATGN

SF1 (aa 1-361) = target: T2, SF1 (aa 1-361) (UniProt Q15637 1-361); test: EMSA; 5-10x molar excess; EMSA: 10 ng 32P-RNA, standard splicing conditions, 30 C, 20 min, then tRNA 5 min; 5% native PAGE; buffer, salt and pH not given; details: protein: recombinant; tags: N-terminal GST (pGEX-5X-2); label: 32P
T2 sequence: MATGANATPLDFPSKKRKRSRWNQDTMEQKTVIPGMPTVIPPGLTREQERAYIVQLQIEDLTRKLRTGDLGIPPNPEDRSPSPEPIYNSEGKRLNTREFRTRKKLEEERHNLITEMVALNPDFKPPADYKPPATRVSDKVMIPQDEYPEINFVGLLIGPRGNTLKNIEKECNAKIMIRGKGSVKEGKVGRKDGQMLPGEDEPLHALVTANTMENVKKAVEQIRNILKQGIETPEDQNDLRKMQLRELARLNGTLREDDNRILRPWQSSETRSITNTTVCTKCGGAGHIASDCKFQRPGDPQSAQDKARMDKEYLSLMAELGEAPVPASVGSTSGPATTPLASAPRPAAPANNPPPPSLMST

B1: NUMB mut2 RNA (ssRNA)
RNA: GGGCACUUGUACACCCUGCAUGAAUUGACUCCAUUGAUGUUGUCUGCUCCCGUUGUAGCGAGUGGCACUGACUCAGCCUUCCAU
- binding result (QKI-5 (His-tagged)): no binding

B2: NUMB mut1 RNA (ssRNA)
RNA: B1 RNA with G27A
- binding result (SF1 (aa 1-361)): binds
